In article PMC10907274:
Several values for one entry are separate records, joined by “and”; a condition that tells them apart may be missing. Equal entries are not always repeated.

Biological target: Dark (wild type), auto-inhibited monomer (D. melanogaster) (UniProt Q7KLI1)
Test: cryo-EM structure

stoichiometry N: 6 and 8
Substance: Dark (wild type), auto-inhibited monomer (from UniProt Q7KLI1 1-1440) (natural protein)
